T1: Human Siglec-15, His Tag (human Siglec-15 full-length extracellular domain linked with His tag) (human, UniProt Q6ZMC9 20-263)
T1 construct: Bought from ACROBiosystems; also called Siglec-15 protein; SG5-H52H3
T1 sequence: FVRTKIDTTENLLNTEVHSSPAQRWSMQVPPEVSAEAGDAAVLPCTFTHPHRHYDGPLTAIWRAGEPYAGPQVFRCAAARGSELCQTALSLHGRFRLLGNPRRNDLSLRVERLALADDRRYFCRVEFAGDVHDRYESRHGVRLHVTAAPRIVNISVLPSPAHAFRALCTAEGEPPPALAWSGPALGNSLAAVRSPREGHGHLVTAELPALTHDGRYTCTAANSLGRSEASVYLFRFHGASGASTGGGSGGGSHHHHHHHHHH

T2: Cynomolgus Monkey Siglec-15 full-length extracellular domain linked with His tag (Cynomolgus Monkey)
T2 construct: Bought from ACROBiosystems; also called SG5-052H6
T2 chain: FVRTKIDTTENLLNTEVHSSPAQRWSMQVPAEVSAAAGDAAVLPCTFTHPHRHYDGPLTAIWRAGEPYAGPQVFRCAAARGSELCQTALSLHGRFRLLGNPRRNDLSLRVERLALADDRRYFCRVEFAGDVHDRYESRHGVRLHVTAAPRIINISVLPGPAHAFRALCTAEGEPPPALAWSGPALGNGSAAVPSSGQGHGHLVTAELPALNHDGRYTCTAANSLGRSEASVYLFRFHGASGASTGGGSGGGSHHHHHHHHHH

T3: Human Siglec-15 overexpressed on HEK293T cells (HEK293T-hu-S15) (human, UniProt Q6ZMC9 20-328)
T3 construct: whole, on cells; also called HEK293T-hu-S15 cell line
T3 sequence (looked up): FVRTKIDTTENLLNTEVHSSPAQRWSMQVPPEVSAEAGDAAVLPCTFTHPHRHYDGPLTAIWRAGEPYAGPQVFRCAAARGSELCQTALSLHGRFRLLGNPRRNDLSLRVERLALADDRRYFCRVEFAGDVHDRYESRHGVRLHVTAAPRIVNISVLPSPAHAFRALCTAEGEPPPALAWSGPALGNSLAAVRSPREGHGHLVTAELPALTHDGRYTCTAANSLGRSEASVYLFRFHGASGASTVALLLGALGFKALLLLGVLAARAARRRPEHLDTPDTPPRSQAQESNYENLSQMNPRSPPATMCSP

B1: 75E1F2 chimeric antibody (antibody, V domains shown)
VH: EVQLVESGGGSVKPGGSLKLSCAASGFTFSDYGMHWVRQAPEKGLEWITYISSGSSIIDYSDTVKGRFTISRDNAKDTLFLQMTSLRSEDTAIYYCVRREDHYAMDYWGQGTSVTVSS
VL: DIVMTQSHKFLSTSVGDRVSITCKASQDVYTAVAWFQQKPGQSPKLLFYSASYRFTGVPDRFNGSGSGTDFTLTITSMQAEDLAVYYCQQHYSTPWTFGGGTKLEIK
notes: Mouse variable regions combined with human IgG1 (N297A) constant regions
B2: 21F6C6 chimeric antibody (antibody, human IgG1, V domains shown)
VH: EVMLVESGGGLVKPGGSLKLSCAASGFTFSSYAMSWVRQSPEKRLEWVATISSGGSLIYYPDSVTGRFTISRDNAKSTLYLQMSSLRSEDTAMYYCVRHGYYYGDSTLYYAMDYWGPGTSVTVSS
VL: DIVLTQSPASLAVSLGQRATISCKASQSVDYDGDSYMNWYQQKPGQPPKLLIYAASNLESGIPARFSGSGSGTDFTLNIHPVEEEDAATYYCQQSNEAPLTFGAGTKLELK
notes: also called 21F6C6-mHL
B3: 174C11C9-hH2L2 (antibody, IgG1, V domains shown)
VH: QVQLVQSGAEVKKPGASVKVSCKASGYIFTDYYMNWVRQAPGQGLEWIGVFNPYSGGISYNQKFKGRVTLTVDTSTSTAYMELSSLRSEDTAVYYCARDYYYLSSHGFYALDYWGQGTTVTVSS
VL: DIQLTQSPSSLSASVGDRVTITCRASESVDSYGNSFIHWYQQKPGKAPKLLMYRASNLESGIPSRFSGSGSGTDFTLTISSLQPEDFATYYCQQSNEDPLTFGQGTKLEIK
notes: Humanized; hIgG1, Kappa
B4: 174C11C9-hH3L3 (antibody, IgG1, V domains shown)
VH: B3 VH with N61A
VL: B3 VL with I62V
notes: Humanized; hIgG1, Kappa
B5: 21F6C6-hH2L3 (antibody, IgG1, V domains shown)
VH: EVQLVESGGGLVKPGGSLRLSCAASGFTFSSYAMSWVRQAPGKGLEWVATISSGGSLIYYADSVTGRFTISRDNAKNTLYLQMNSLRAEDTAVYYCVRHGYYYGDSTLYYAMDYWGQGTTVTVSS
VL: DIQLTQSPSSLSASVGDRVTITCRASQSVDYDGDSYMNWYQQKPGKAPKLLIYAASNLESGVPSRFSGSGSGTDFTLTISSLQPEDFATYYCQQSNEAPLTFGQGTKLEIK
notes: Humanized; hIgG1, Kappa
B6: 21F6C6-hH2L2 (antibody, IgG1, V domains shown)
VH: B5 VH
VL: B5 VL with V19A, L82V
notes: Humanized; hIgG1, Kappa
B7: 21F6C6-hH2L4V (antibody, IgG1, V domains shown)
VH: B5 VH
VL: B5 VL with L4M, D32E, E59Q
notes: Humanized; hIgG1, Kappa
B8: 21F6C6-hH1L1 (antibody, IgG1, V domains shown)
VH: B5 VH with A61P, N77S
VL: B5 VL with V19A, V62I, S64A, L82V
notes: Humanized; hIgG1 heavy chain constant region, Kappa light chain constant region
B9: 21F6C6-hH2L4 (antibody, IgG1, V domains shown)
VH: B5 VH
VL: B5 VL with L4M, E59Q
notes: Humanized; hIgG1, Kappa
B10: 124B11F6-hH1L1 (antibody, IgG1, V domains shown)
VH: QVQLVQSGAEVKKPGASVKVSCKASVFNIKDYYMHWVRQAPGQGLEWIGRIDPEDDKTKYAPKFQGRATITADTSTNTAYLELSSLRSEDTAVYYCVRGWLGYIMDFWGQGTTVTVSS
VL: QLVLTQSPSASFSLGASAKLTCTLSSQHSTYTIDWYQQQPEKGPRYVMELKEDGSHSTGDGIPDRFSGSSSGAERYLTISSIQSEDEADYICGVGATIKEQFVYVFGGGTKVTVL
notes: Humanized; hIgG1 heavy chain constant region, Lambda-C2 light chain constant region
B11: 124B11F6-hH2L2 (antibody, IgG1, V domains shown)
VH: B10 VH with A68V, N77S
VL: B10 VL with F12A, A18V, I82L
notes: Humanized; hIgG1, Lambda

Residue numbers refer to the chain shown, from its start. In names and notes the source's numbering stands.

As usually defined, the Kd is the free concentration of one partner at which half of the binding sites on the other are occupied at equilibrium, for simple one-to-one binding. As a reminder, the koff is the rate constant with which the complex falls apart. As a reminder, the kon is a measure of how fast the partners come together. The term EC50 denotes the concentration that produces a half-maximal response.

One experiment deals with T1, Human Siglec-15, His Tag (human …). In words: Octet BLI epitope binning, Siglec-15 His on HIS1K sensor; competitor 21F6C6. As to the method: (§1) Epitope binning assays were performed using the Octet RED96e (ForteBio) System for the antibodies tested. Human Siglec-15, His Tag (Cat. No. SG5-H52H3) (5 μg/mL) was captured by the HIS1K biosensor and bound to primary antibody (100 nM) for 180 s. Then, the Human Siglec-15, His Tag (antigen)-primary antibody was bound to secondary antibody (100 nM) on the biosensors for 90 s. Data analysis was performed using Octet RED96e (ForteBio) analysis software.
B1: the cross-competition score worked out at 23.3%.

The target is the same in the next experiment. In words: Octet BLI epitope binning, Siglec-15 His on HIS1K sensor; competitor 174C11C9. Here is the method:
as §1
(In BLI a coated tip is dipped into the sample, and binding shifts an interference pattern.)
Consider B2, for which the cross-competition score came out at 4.98%.

As to B1, the cross-competition score came to 23%.

For another experiment the target is unchanged. In words: SPR Biacore, antibody captured by anti-human Fc on CM5, Siglec-15 protein as analyte. Background: SPR reads the build-up and loss of mass on a sensor chip optically.
Take B3: binding was characterised by a dissociation constant (Kd) of 0.325 nM, the dissociation rate constant (koff) was 0.000447 s⁻¹ and the kon was found to be 1.37e+06 M⁻¹ s⁻¹.

As for B4, the Kd turned out to be 0.614 nM, the koff came to 0.000482 s⁻¹ and the kon came to 785000 M⁻¹ s⁻¹.

With B5, binding was characterised by a dissociation constant (Kd) of 0.0724 nM, the koff amounted to 0.000353 s⁻¹ and the kon turned out to be 4.87e+06 M⁻¹ s⁻¹.

Consider B6, for which the Kd came to 0.0683 nM, the koff turned out to be 0.000314 s⁻¹ and the on-rate constant (kon) was 4.59e+06 M⁻¹ s⁻¹.

Turning to B7, the Kd was 0.114 nM, the koff came out at 0.000184 s⁻¹ and the kon stood at 1.61e+06 M⁻¹ s⁻¹.

B8 displayed a Kd of 0.0806 nM, a koff of 0.000341 s⁻¹ and a kon of 4.23e+06 M⁻¹ s⁻¹.

B9 returned a Kd of 0.0856 nM, a koff of 0.000414 s⁻¹ and a kon of 4.84e+06 M⁻¹ s⁻¹.

B10 registered a dissociation constant (Kd) of 0.109 nM, a koff of 0.000127 s⁻¹ and a kon of 1.17e+06 M⁻¹ s⁻¹.

Take B11: the equilibrium dissociation constant (Kd) came out at 0.202 nM, the off-rate constant (koff) came out at 0.000224 s⁻¹ and the kon was determined as 1.11e+06 M⁻¹ s⁻¹.

Molecule B2 registered a dissociation constant Kd of 0.0684 nM, a koff of 0.000375 s⁻¹ and a kon of 5.49e+06 M⁻¹ s⁻¹.

In a further experiment the target is T2, Cynomolgus Monkey Siglec-15 full-length …. In words: ELISA, coated antigen. Here is the method:
(§2) The variable regions from the antibodies produced by the hybridomas were combined with human IgG1 (N297A) constant regions to generate chimeric antibodies, named as 21F6C6, 75E1F2, 124B11F6, 174C11C9, and 255C12B10, respectively. Binding activity assays were performed on the chimeric antibodies using Siglec-15 proteins from different species, in which human, mouse and Cynomolgus Monkey Siglec-15 proteins were purchased from ACROBiosystems (Beijing, China). Antigen was coated at 0.5 μg/ml, and antibodies were diluted starting from 1 μg/ml and incubated with antigen. Horseradish peroxidase-labeled Anti-Human IgG antibody was used as the secondary antibody and OD₄₅₀ values were read after adding the substrate.
On to B2, for which the EC50 was 6.61 ng/mL.

With B1, a half-maximal effect (EC50) was put at 12.2 ng/mL.

The target of another experiment is T1, Human Siglec-15, His Tag (human …). In words: ELISA, coated antigen. Here is the method:
as §2
B2 gave an EC50 of 4.81 ng/mL.

Molecule B1 registered an EC50 of 18.6 ng/mL.

The target is the same in the next experiment. In words: Octet BLI epitope binning, Siglec-15 His on HIS1K sensor; competitor 75E1F2. Here is the method: as §1
Take B2: the cross-competition score turned out to be 4.92%.

Another experiment shares this target. In words: SPR Biacore 8K, antibody captured by anti-human Fc, Siglec-15 His as analyte. As to the method: Affinity analysis was performed using Biacore8K, and a CM5 chip immobilized with anti-human Fc antibody was used to capture the antibodies tested. The stock solutions of the antibodies to be tested were diluted to 5 μg/mL, and injected sequentially into the experimental channels at a flow rate of 10 μL/min at about 500 RU. The analyte was Human Siglec-15, His Tag (Cat. #SG5-H52H3), the diluted human Siglec-15 protein was injected sequentially into the experimental channels and the control channel at a flow rate of 30 μL/min and allowing for a binding time of 150 s and a dissociation time of 700 s. The KD value of each antibody was calculated using Biacore 8K analysis software.
B2: the Kd was found to be 0.0473 nM, the dissociation rate constant (koff) is 0.000187 s⁻¹ and the kon is 3.95e+06 M⁻¹ s⁻¹.

Regarding B1, the dissociation constant (Kd) was 0.93 nM, the dissociation rate constant (koff) turned out to be 0.000782 s⁻¹ and the kon is 841000 M⁻¹ s⁻¹.

Another experiment has the same target. In words: Octet BLI epitope binning, Siglec-15 His on HIS1K sensor; competitor 255C12B10. As to the method: as §1
Take B2: the cross-competition score came out at 56.8%.

On to B1, for which the cross-competition score worked out at 69.2%.

For another experiment the target is unchanged. In words: Octet BLI epitope binning, Siglec-15 His on HIS1K sensor; competitor 124B11F6. As to the method: as §1
Consider B2, for which the cross-competition score turned out to be 101%.

B1: the cross-competition score came out at 25.6%.

The target in a further experiment is T3, Human Siglec-15 overexpressed on …. In words: flow cytometry on HEK293T-hu-S15 cells, detection with anti-human IgG (Fc specific)-FITC, average fluorescence intensity. As to the method:
HEK293T cell line overexpressing Siglec-15 (HEK293T-hu-S15) was purchased from KYinno Biotechnology Co., Ltd (Beijing, China) under Catalog #KC-1314. Purified anti-Siglec-15 chimeric antibodies were diluted at a gradient of 100 nM and incubated with HEK293T-hu-S15 cells at 4° C. for 30 min. Flow cytometry was performed after addition of anti-human IgG (Fc specific)-FITC (cat. #F9512) and incubation for 30 min.
Background: Flow cytometry measures light scatter and fluorescence of single cells or particles in a stream.
As to B2, the EC50 is 1.19 nM.

As to B1, the EC50 was 1.88 nM.

(Values after patent US20240092897A1 (SHANGHAI JMT BIO TECHNOLOGY, published 2024).)
